Test results reported in patent US20160002338A1 (Hoffmann-La Roche, published 2016).

How the values were obtained:
[1] = target: T1, human recombinant HER3 ECD (human, UniProt P21860 20-643); test: SPR Biacore 4000, antibody captured, antigen 150 nM, 25 C
T1 construct: 68 kDa; also called human-Her3-ECD; full length Her3 ECD
Protocol: In all assay the test antibodies were captured. The system was under the control of the software version V1.1. The instrument buffer was HBS-EP (10 mM HEPES (pH 7.4), 150 mM NaCl, 1 mM EDTA, 0.05% (w/v) P20). The system operated at 25° C. 30 μg/ml Rabbit polyclonal antibody (RAM IgG, (Rabbit anti Mouse IgG with Fc gamma specificity) GE Healthcare) in 10 mM sodium acetate buffer (pH 4.5) was immobilized using EDC/NHS chemistry according to the manufacturer's instructions on the spots 1, 2, 4 and 5 in the flow cells 1, 2, 3 and 4. The sensor was saturated using 1M ethanolamine. In each flow cell, referenced signals were calculated using spots 1-2 and spots 5-4, spot 3 served as a blanc control. […] The antibody capture level (CL) in response units was monitored. […] Thereafter, the antibody-antigen complex dissociation signal was recorded for 5 min. […] The recorded signal shortly before the end of the injection of the antigen was denoted as binding late (BL) in response units. The recorded signal shortly before the end of the recording of the dissociation is denoted as stability late (SL) in response units. The dissociation rate constants were determined calculated The antibody-antigen complex stability in minutes was calculated with the following formula: ln(2)/60*kd. The Molar Ratio was calculated with the formula: MW (antibody)/MW(antigen)*BL (antigen)/CL (antibody). […]

HER3 ECD-HRG complex = target: T2, HER3 ECD-HRG complex (human, UniProt P21860 20-643); test: SPR Biacore T200, antibody captured, 25 C
T2 construct: also called Heregulin/Her-3 ECD
T2 sequence (P21860 20-643 limits assumed, one chain of several): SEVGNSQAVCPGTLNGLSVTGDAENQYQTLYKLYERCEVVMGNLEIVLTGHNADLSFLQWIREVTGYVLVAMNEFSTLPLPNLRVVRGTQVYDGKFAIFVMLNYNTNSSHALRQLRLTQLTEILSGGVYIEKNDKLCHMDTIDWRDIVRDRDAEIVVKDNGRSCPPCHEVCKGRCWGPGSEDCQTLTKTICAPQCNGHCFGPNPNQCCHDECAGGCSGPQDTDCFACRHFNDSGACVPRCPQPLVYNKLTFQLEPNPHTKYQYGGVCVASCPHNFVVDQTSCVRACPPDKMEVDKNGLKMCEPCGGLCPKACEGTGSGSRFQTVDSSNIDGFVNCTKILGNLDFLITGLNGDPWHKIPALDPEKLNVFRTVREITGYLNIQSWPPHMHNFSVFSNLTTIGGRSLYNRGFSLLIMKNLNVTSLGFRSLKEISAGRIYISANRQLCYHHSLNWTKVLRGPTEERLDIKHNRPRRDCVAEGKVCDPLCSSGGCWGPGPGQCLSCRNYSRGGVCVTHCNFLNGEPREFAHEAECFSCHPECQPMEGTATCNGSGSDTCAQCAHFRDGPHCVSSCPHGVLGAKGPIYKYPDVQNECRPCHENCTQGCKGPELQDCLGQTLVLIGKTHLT
Protocol: (§1) A Biacore T200 instrument (GE Healthcare) was mounted with a CM5 series sensor. The sensor was normalized in HBS-ET buffer (10 mM HEPES pH 7.4, 150 mM NaCl, 3 mM EDTA, 0.05% w/v Tween 20) according to the manufacturer's instructions. The sample buffer was the system buffer supplemented with 1 mg/ml CMD (Carboxymethyldextran, Sigma #86524). The system operated at 25° C. 6500 RU RAM-Fey (relative units of Fey-fragment RamIgG, GE Healthcare) were immobilized according to the manufacturer's instructions using amine coupling EDC/NHS chemistry on all four flow cells. The sensor was deactivated using 1M ethanolamine. […] Concentration dependent kinetics were measured. […] All analytes were injected for 5 min association time and 10 min dissociation time at 100 μl/min flow rate. The sensor capture system was regenerated by a 3 min injection at 10 μl/min of 10 mM glycine pH 1.7. Where possible kinetic data was evaluated using the Biacore T200 evaluation software.

TtSlyDcys-Her3 = target: T3, TtSlyDcys-Her3; test: SPR Biacore T200, antibody captured, 25 C
T3 chain: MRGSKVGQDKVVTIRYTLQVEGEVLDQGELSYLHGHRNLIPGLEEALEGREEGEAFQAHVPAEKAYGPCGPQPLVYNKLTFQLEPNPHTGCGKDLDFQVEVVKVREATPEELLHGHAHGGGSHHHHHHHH
Protocol: as §1

[2] = target: T1, human recombinant HER3 ECD; test: SPR Biacore T200, antibody captured, 25 C
Protocol: as §1

[3] = target: T4, human recombinant HER4 ECD (human, UniProt Q15303 26-651); test: SPR Biacore T200, antibody captured, 25 C
T4 construct: also called full length Her4 ECD
T4 sequence: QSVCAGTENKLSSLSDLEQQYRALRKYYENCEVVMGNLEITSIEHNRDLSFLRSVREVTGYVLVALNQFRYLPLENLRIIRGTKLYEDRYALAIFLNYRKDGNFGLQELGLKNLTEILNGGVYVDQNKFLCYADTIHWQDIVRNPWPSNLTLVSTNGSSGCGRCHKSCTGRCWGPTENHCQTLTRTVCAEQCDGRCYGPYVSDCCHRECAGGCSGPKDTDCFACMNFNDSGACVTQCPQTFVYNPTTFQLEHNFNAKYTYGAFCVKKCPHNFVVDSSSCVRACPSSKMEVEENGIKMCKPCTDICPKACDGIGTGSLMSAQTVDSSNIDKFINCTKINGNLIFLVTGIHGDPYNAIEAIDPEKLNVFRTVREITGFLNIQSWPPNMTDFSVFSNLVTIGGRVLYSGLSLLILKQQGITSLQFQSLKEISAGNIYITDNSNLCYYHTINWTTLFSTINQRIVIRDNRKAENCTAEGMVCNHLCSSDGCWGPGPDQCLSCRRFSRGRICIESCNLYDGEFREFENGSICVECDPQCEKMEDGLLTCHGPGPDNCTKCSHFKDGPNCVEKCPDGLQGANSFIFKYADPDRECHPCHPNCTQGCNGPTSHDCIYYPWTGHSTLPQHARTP
Protocol: as §1

TtSlyDcas = target: T5, TtSlyDcas; test: SPR Biacore T200, antibody captured, 25 C
T5 construct: control scaffold without insert; N-terminal Met may be present or not
T5 chain: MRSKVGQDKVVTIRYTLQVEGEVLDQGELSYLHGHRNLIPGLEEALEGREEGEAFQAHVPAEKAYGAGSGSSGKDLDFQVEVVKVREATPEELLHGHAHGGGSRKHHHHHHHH
Protocol: as §1

human HER1 ECD = human HER1 ECD (human, UniProt P00533 25-645); test: SPR Biacore T200, antibody captured, 25 C
Protocol: as §1

HER4 ECD-HRG complex = target: T6, HER4 ECD-HRG complex (human, UniProt Q15303 26-651); test: SPR Biacore T200, antibody captured, 25 C
T6 construct: HER4 ECD preincubated with a 5-fold molar excess of Heregulin; also called HER-4-ECD-RG
T6 sequence 1: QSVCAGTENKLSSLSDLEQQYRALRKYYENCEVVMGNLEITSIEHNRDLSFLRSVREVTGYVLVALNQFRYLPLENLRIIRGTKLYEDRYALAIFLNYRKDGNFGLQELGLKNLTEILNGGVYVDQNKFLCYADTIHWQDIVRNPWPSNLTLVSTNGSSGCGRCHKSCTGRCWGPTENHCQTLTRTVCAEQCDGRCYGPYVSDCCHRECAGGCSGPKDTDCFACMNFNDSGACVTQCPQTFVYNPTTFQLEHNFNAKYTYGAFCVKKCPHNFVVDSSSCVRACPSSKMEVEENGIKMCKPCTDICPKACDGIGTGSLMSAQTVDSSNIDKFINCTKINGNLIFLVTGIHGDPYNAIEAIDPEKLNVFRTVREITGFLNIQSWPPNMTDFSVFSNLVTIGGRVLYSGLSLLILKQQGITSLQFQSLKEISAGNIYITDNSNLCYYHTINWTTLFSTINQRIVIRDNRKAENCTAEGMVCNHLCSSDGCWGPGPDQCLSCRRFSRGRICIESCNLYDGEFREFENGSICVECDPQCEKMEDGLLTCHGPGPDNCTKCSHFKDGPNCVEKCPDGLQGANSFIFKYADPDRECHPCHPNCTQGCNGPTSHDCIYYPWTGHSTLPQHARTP
T6 sequence 2: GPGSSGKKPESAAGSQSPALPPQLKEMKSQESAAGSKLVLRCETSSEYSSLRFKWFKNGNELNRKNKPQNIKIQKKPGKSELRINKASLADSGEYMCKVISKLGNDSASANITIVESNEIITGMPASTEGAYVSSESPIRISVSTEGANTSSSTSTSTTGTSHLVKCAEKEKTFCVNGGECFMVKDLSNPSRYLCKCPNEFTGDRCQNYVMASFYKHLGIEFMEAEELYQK
Protocol: as §1

T1 sequence (P21860 20-643): as the sequence (P21860 20-643 limits assumed, one chain of several) above

B1: anti-HER3/HER4 antibody M-05-74 (antibody, V domains shown)
VH: QVQLQQSGAELAKPGASVKMSCKTSGYTLTDYWIHWVKQRPGQGLEWIGYINPYTGYTESNQKFKDKATLTADKSSNTAYIQLSSLTSEDSAVYYCARPYYYGDYWGQGTTLTVSS
VL: QIVLTQSPAIMSASPGERVTITCSASSSVSYMHWFQQKPGTSPKLLIYSTSNLASGVPARFSGSGSGTSYSLTISRMEAEDAATYYCQQRSSYPFTFGSGTKLEIK
notes: murine monoclonal antibody from hybridoma (supernatant or purified); also called M-074; M-5-74
Molar Ratio MR [1]: 0.5 | Molar Ratio MR (HER3 ECD-HRG complex): 0.8 | Molar Ratio MR (TtSlyDcys-Her3): 1.9 | Molar Ratio MR [2]: 0.1 | Molar Ratio MR [3]: 0.1 | Molar Ratio MR (TtSlyDcas): 0 | binding result (TtSlyDcas): no binding (tested: 90 nM) | binding result (human HER1 ECD): no binding (tested: 90 nM) | Molar Ratio MR (HER4 ECD-HRG complex): 0.8
